From article PMC2173804 come the findings set out here.

The labels stand for the following.
B1: FasL (dsDNA)
DNA 1: CTAGAATAAGTAAATAAATAA
DNA 2: CTAGTTATTTATTTACTTATT
B2: mut2 (dsDNA)
DNA 1: CTAGGCAAGGTAAGTTCTCCT
DNA 2: CTAGAGGAGAACTTACCTTGC
B3: bim1 (dsDNA)
DNA 1: CTAGCTAGGGTAAACACGCCG
DNA 2: CTAGCGGCGTGTTTACCCTAG
B4: bim2 (dsDNA)
DNA 1: CTAGGCAAGGTAAACACTCCT
DNA 2: CTAGAGGAGTGTTTACCTTGC
B5: mut1 (dsDNA)
DNA 1: CTAGCTAGGGTACCCACGCCG
DNA 2: CTAGCGGCGTGGGTACCCTAG

This data set deals with GST-FKH (FKHRL1/FOXO3a DNA-binding domain) (UniProt O43524 141-268, S253A). Nature of the data set: EMSA.
Sequence of GST-FKH (FKHRL1/FOXO3a DNA-binding domain) (O43524 141-268 S253A): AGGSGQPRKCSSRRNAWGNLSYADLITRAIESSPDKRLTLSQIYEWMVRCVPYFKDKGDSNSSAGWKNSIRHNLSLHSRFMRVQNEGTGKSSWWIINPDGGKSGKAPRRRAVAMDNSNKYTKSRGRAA
Consider B1, for which the binding result is “binds”. As for B2, the binding result is reported as “no binding”. B3: the binding result is reported as “binds”. As for B4, the binding result is on record as “binds”.

As to B5, the binding result is listed as “no binding”.
